Test results reported in article doi:10.1101/2021.12.15.472864 (bioRxiv, 2021).

Target: SARS-CoV-2 spike receptor-binding domain (RBD), residues 333-529 (SARS-CoV-2, UniProt P0DTC2)
Assay: crystal structure

B1: ADI-62113 Fab (Fab, V domains shown)
VH: QVQLQQSGAEVKKPGASVKLSCKASGYTFSVFPIHWVRQAPGQRLEWMGWHNAGDGDTKYSQKFQGRVTIISDTSASTAYMELSSLKSEDTAVYYCARAARPYYDRRGYFFRADYFQHWGQGTLVTVSS
VL: DIQVTQSPSSLSASVGDRVTITCQASQDIKNSLNWYQQKPGKAPKLLISDASNLETGVPSRFSGNGSGTDFTFTISSLQPEDIATYYCQQYDNLITFGPGTKVEIK
binding result: binds
